Reference: article doi:10.1101/2025.06.26.661714

Molecular target: biotin-conjugated Aβ_(1-40)
Assay: ELISA

- EC50: 3.5 nM
B1: solanezumab-Im7 wild-type (solanezumab Fab conjugated to Immunity protein 7) (Fab, V domains shown)
VH: EVQLVESGGGLVQPGGSLRLSCAASGFTFSRYSMSWVRQAPGKGLELVAQINSVGSSTYYPDTVKGRFTISRDNAKNTLYLQMNSLRAEDTAVYYCASGDYWGQGTLVTVSS
VL: DVVMTQSPLSLPVTLGQPASISCRSSQSLIYSDGNAYLHWFLQKPGQSPRLLIYKVSNRFSGVPDRFSGSGSGTDFTLKISRVEAEDVGVYYCSQSTHVPWTFGQGTKVEIK
